Assay: soluble on expression in E. coli; label from the status in PepcDB or PDB records

| Sequence | soluble on expression in E. coli |
| --- | --- |
| MLRHSPSLWELVEEHVPLRERREVKRILGEAAVDLSLELRAEVAMLRALLQEARSSQAPSSRPISDPSSLLAPPPLLKDLLRQELRQLLQGLRHKAICEGRDQAQAWVQYSPRVLHFALEEPRCDLPEQEIFQMRGGGPSSGHRDLSIIKDQLNVSNIDQVARHLRGLLEEECHTLEREILILQRCLEEEYLRPCHPSEAALEPTLAELKEQKKAMEQELQASVGPSCVSPNHRQRPLGSSTQGLRPPLPLCGVAPLQCCLPAPPLEPYLRPRGQSATHRWGRQLQCSPREGPASTPMSSAAPQAPA | soluble |
| MLRIYAPASSANISVGFDTLGAAISPIDGSLLGDVVQIESISTGFELESAGYFVRKLPKEPQKNIVYQAYVLFSEQLKLRGANVKPLRLTLEKNMPIGSGLGSSACSIVAALVALNQFHNEPFSKMELLEMMGELEGRISGSIHYDNVAPCYLGGVQFMVQS | not soluble |
| MLRKEEILERTSNGLSVFKHYVPGNWRIGRNFLNPLYEDNKASCNIYFDRRSGIYKMKDFGNDNYSGDCFFFVGQLKGLDCNNSMDFVEILETIDRDLGLGLATGNPIPVTRNSCRVVDNILEETPEKESKPYQFREQKFPLAELMYWQQYGITPEILELYKVCSLRDFQSVTADGTQFTYTSSVTEPMYGYKSKRYIKLYRPFSKTRFLYGGNFGDNYCFGLEQLPAKGDTLFITGGEKDVMSLAAHGFHAICFNSETVTVPPTLIYKLTFRFKHIILLYDTDKTGKESARKQEKQLEEFSVKRLLLPLSGTKEEKDISDYFKAGNTREDFLKLFIEFLDNLYSDTLIMLKSCEIDFNNPPAKAQVIISAGDVPLGTQGNLFGITGGEGTGKSNYIAAMLAGCICQPDKEVDTLGIQITANSKRKAVLLYDTEQSEVQLFKNVSNLLARAKQPDKPEELKAFCLTGMSRKERLHAIVQSMDKFYYQYGGIQLVVIDGIADLVKSANDEAESVAVIDELYRLAGIYNTCILCVLHFVPNGLKLRGHLGSELQRKAATILSIEKDEEPTQSVVKALKVRDGSPLDVPLMLFAWDKAAGMHLYKGEKPREEKEKRKEKELVCVARDIFGRQTHITYIDLCEQVAAGFGRERTYCQKLCSFHAGTGYYH | not soluble |
| MLRLEEDEPSPGICDQLHEIVRSIGLLCYVACPPIPSEIIRKLAFHPPDKGATYRIELKSDPEKDLESVRDCHDEPVQLVVRDRVHPEVKVFSVTTSEDSHLVCVKCSPNCYSKNPEVANQVVLFCQSSSADLGSFLQPNSMNFSTFANLFETDVYAFDYSGYGFSSGTQSEKNMYADVRAVYEHILKTRPDKKIVVIGYSIGTTAAVDLAASNPDRLVGVVLIAPLTSALRMFCNNPDKETTCIDKICHINTRVLICHGDHDQRIPMTHGMALYENLKNPVPPLIVHGANHHSIISGEYIEVFTRIASFMRNETLLSCRANQIESSSSKKFKHE | not soluble |
| MLSEERVKELLKKLKDLKILVVGDVILDTYLYGNVERISPEAPVPVLEVEGEEFRLGGAGNVAKNLSSLGVETYLCGVVGKDEAGKRLRELIEGNSIRSFLIEDERPTTKKTRVVSRNQQLLRIDWEDRSYISGKALEKILDVIKNLQVDGIIVSDYAKGVITEEVIKTIREKGVFYSVDPRPKHRELYRKAYLMTPNEKELREMSKFEGSVEELGKKLKEELELETLIVTRGEKGMSLFTEKGVKHFPARARKVYDVTGAGDTVIASITAFKLAGATWEECCELGNVCGGIVVGEFGTATVTPEKLLKAVKLNS | not soluble |
| MLSFINKPRMESKMTIPELRELYQTQQLVEAIIEPSFQEGEWIVEFRHQMGGFVLLTDENGEECRYIDLDSASQSAMAVGFRQVRIENQ | not soluble |
| MLSFRNWWAREDSNPRPPGYEPGALPTELRAHTAIRLYSNKTPLSRSVISMKKDPIKEMLVKYPRILVIKAALKILKDGNKIDRERIEKTIVKIMTKKEGLEHHHHHH | soluble |
| MLSGYIAGAIMKQEVILVLDCGATNVRAIAVNRQGKIVARASTPNASDIAMENNTWHQWSLDAILQRFADCCRQINSELTECHIRGIAVTTFGVDGALVDKQGNLLYPIISWKCPRTAAVMDNIERLISAQRLQAISGVGAFSFNTLYKLVWLKENHPQLLERAHAWLFISSLINHRLTGEFTTDITMAGTSQMLDIQQRDFSPQILQATGIPRRLFPRLVEAGEQIGTLQNSAAAMLGLPVGIPVISAGHDTQFALFGAGAEQNEPVLSSGTWEILMVRSAQVDTSLLSQYAGSTCELDSQAGLYNPGMQWLASGVLEWVRKLFWTAETPWQMLIEEARLIAPGADGVKMQCDLLSCQNAGWQGVTLNTTRGHFYRAALEGLTAQLQRNLQMLEKIGHFKASELLLVGGGSRNTLWNQIKANMLDIPLKVLDDAETTVAGAALFGWYGVGEFNSPEEARAQIHYQFRYFYPQTEPEFIEEV | not soluble |
| MLSKITQELLKMNNVLLMRPDDSEFMIPDDWSGLNAKGITYEQDNRVTESFLPFKSFYCSPVCTTVELISQNNCFAMGIRYLLEKKRDLRLNHFKAFSHKCETKPDVLIMTGCTVADTYSIFSRIVEENIMKTMTPIVIITGHHSEDLCSLASKLGGVKIISPTEKIAKIENAINDAFNSKPKKIRFLTDILSPQQIETMKMVAQGRSVNEISAAMNISIKTVYAHKVRAINKLGIKKKVYEALFYKALIQFN | not soluble |
| MLSPLAKANLCLNLFGFFKVPLIWACRPKILSLNDQAVEVRIPLKRRNKNHLNSMYFGVLAVGADVAGGYMAMHKANQRGKSVSLAFKSVRGEFHKRPEAAVHFHCVEGEKIDRMLDETARTGERVNQEVHIIATCPTLHGDEPMAEFWLTLSLKIVKLEHHHHHH | soluble |
| MLSVIGIGPGSQAMMTMEAIEALQAAEIVVGYKTYTHLVKAFTGDKQVIKTGMCREIERCQAAIELAQAGHNVALISSGDAGIYGMAGLVLELVSKQKLDVEVRLIPGMTASIAAASLLGAPLMHDFCHISLSDLLTPWPVIEKRIVAAGEADFVICFYNPRSRGREGHLARAFDLLAASKSAQTPVGVVKSAGRKKEEKWLTTLGDMDFEPVDMTSLVIVGNKTTYVQDGLMITPRGYTL | not soluble |
| MLTGLFFGSFNPMHIGHLALANYLTEYTPIGQLWFVPSPLNPLKNTQELLPYDLRCELIEQAIRKDIRFQVLRIEELLPSPHYTIRTLRALSMLYPHHRFALLIGADNWQSFDRWKDHHRLMAKYELIIYPRFGYEVDDTTLPTGCRYIHDAPRIEISSTQIRTSILEGKDLRYWLPLPESQDVIASALQSCLSPKR | not soluble |
| MLTIGLYNTYDTKKLHEAHIRAIARAAPVAYAYEFHLALIGFPFDSDDPKEVAERVASTTTIGEGGKYLLELAKSNKFHLLDFPKRGFPPQFGEVIATTSKPSKEKVIGSREVAEMALRGKSLMLIIGLGRHGLPKEVFEISKYHLDITDGREISLETCTAIGIIPARIKTLMEALKWK | not soluble |
| MLTKGWDTISIVRQDSVNSDLAASWNSLDHEFSYTSDEGYACHGVFDCWSVINGGGGRLLRLRMPIRSGFFEASGTSRSLAGAVAIIEVTLSLLPQGNGQVQLKSAFLHKAGATQPLQGDEGGWLRGITLQDPDGSLGPFASVVLDCICNYLVEHPLQFTHTFATINFSKATAPEWARPRKCTYAYLDSGFLAIMAVCTERDISGLPLDIDVSGISQGGQSSYVLSPRMVLEHLVLPGLLQLYQGATAQDYRLDNTQMVNIPTLRMKAIKSGAIWYTPVVFAGCNPARMLGDFITVDYKGDCDLHAGIDMKWNGWLRMKLVLDGNTINFVKQSSDFRKEVHIPWYLAWLSPIVSLITHIVAAVISDDLISAIAARGGSVKADTIDCVSWSNDTHTASSSYLAEALVINYV | soluble |
| MLTLIQGKKIVNHLRSRLAFEYNGQLIKILSKNIVAVGSLRREEKMLNDVDLLIIVPEKKLLKHVLPNIRIKGLSFSVKVCGERKCVLFIEWEKKTYQLDLFTALAEEKPYAIFHFTGPVSYLIRIRAALKKKNYKLNQYGLFKNQTLVPLKITTEKELIKELGFTYRIPKKRL | soluble |
| MLTVDQVKELVGEIKDPIIDVPLKETEGIVEVSIKEEKEHVSVKLAMAQLGGAPQLDLQMAVVNALKENGAKTVGIRFETLPEEKVNQFKPKEENKPKTIEGLLSQNNPVEFIAIASGKGGVGKSTVAVNLAVALAREGKKVGLVDADIYGFSVPDMMGIDEKPGIKGKEVIPVERHGVKVISMAFFVEENAPVIWRGPMLGKMLTNFFTEVKWGDIEYLILDLPPGTGDVALDVHTMLPSSKEIIVTTPHPTAAFVAARAGAMAKHTDHSILGVIENMSYFESKETGNKEYVFGKGGGTKLADELNTQLLGELPLEQPSWNPKDFAPSIYQSDDRLGKIYSSIAQKVIAATNKLEHHHHHH | soluble |
| MLVGLIGYGAIGKFLAEWLERNGFEIAAILDVRGEHEKMVRGIDEFLQREMDVAVEAASQQAVKDYAEKILKAGIDLIVLSTGAFADRDFLSRVREVCRKTGRRVYIASGAIGGLDAIFSASELIEEIVLTTRKNWRQFGRKGVIFEGSASEAAQKFPKNLNVAATLSIASGKDVKVRLVADEVEENIHEILVRGEFGEMEIRVRNRPMRENPKTSYLAALSVTRILRNLKEGLVV | soluble |
| MLVLGSGGARGYAHIGVIEELEARGYEITCIAGCSMGSVIGGIYAAGKLREYREWVESLDYLDVLRLLDVSFRLGAIRGERVFGKIHEILGEVNIEDLSIPYTAVATDLTNQQEIWFQEGCLHQAMRASAAIPSLFTPVMQGSRMLVDGGLLNPLPIVPVV | soluble |
| MLVRDVMKSPVLTVGPEATLEEAYKLLLERGIRHLPVVEEGRLVGIVTDRDIRLATSHLNPKGPCPGCTRVGEVMTREVVTAHPLDPVEEAARVMRERKIGCLPVLEDEALVGIVTGIDLLDALLRLTGVTEPSGRLEVRLPDRPGELARLTGFLAGRGVNIHSLLSYPEGREFVRAVVRVNTLETHLLAEALRREGFDVLWPPKKPW | soluble |
| MLYASYMSYVSIKMHASSNGAHISGAETLVDESRAYEFLSSFYQRANTHSKGKPEITTLTIRRIKDADIITIPALEVKCLPALHPSEAHRQVIEQLSNVVSPTIAQMALHTVLNARNMRGAILLCAHTGQRLDPYDPQRGVRASTFGVTPQESAGPTLNKSHFNEALVLASKVMSAPGIVAEICISDDPAYTTGYVTTENTYIRIPHMKDPYSPIGGRVFLLDTRVSTPEDTISYLEQKPVLITGVN | not soluble |
| MLYKEPEDGEKIKFDKGKWIVPNKPVILYIEGDGIGPEITNAAIKVINKAVERAYGSSREIKWLEVYAGEKAEKLVNDRFPKETQEMLLKYRVVLKGPLETPIGKGWKSVNVAIRLMLDLYANIRPVKYIEGLESPLKHPEKVDMIIFRENTDDLYRGIEYPFNSEEAKKIRDFLRKELKVEIEDDTGIGIKVMSKYKTQRITRLAIQYAIEHKRKKVTIMHKGNVMKYTEGAFREWAYEVALKEYRDFIVTEEEINQGKPDQGKIILNDRIADNMFQQIIIRPEEYDIILAPNVNGDYISDAAGALIGNIGMLGGANIGDEGGMFEAIHGTAPKYAGKNVANPTGIIKAGELMLRWMGWNEAADLIEKAINMAIRDKKVTQDIARFMGVKALGTKEYADELIKIMDTI | soluble |
| MLYLAELLQGKNALITGAGRGIGRAVAIALAKEGVNVGLLARSEENLKAVAKEVEAEGVKAVIATADVSSYEEVTTAIETLKNGLGSIDILINNAGISKFGKFLELDVADWEKIIQVNLMGVYYATRAALPSMIEQQSGDIINISSTAGQKGAPVTSAYSASKFGVLGLTESLAMEVRKHNIRVTALTPSTVATDMAVDLGLTDGNPDKVMQAEDIAEFIVAQLKLNKRTFIKSAGLWSTNP | not soluble |
| MLYLHDIWVNWFEGEENGYNVCHFHEWRKDDQIELLDQVPLLKVSPALFHYIENSLSDLPKPLLDDVHQKAYVRKNHERIQLDYCFVVTDGAGVLAVDTIGYQIPIRKSRLIPRQEQLVYEMAAEAEERDYPLPRYEKEYHILSPAPELMCGLTRKERQLKQLLFMALDQLYSTKNTAQMRYWYTEWAPEKYAAIQKMSFDEAWEQLYNETKYGWSERHEQLCENLIKGQPFFEKLWEMEQEPKVN | soluble |

From the DeepSol protein solubility set
